# From US20200113997A1 (published 2020)
# Target: CH848 Env trimer expressed on the cell surface of CHO cells (HIV-1 (clade C, individual CH848, …))
# Experiment: flow cytometry on CHO cells expressing CH848 Env
binder,measurement,value
"DH270.IA4 (antibody, V domains shown, also called DH270_I4) VH: QVQLVQSGAEVKKPGASVKVSCKASGYTFTDYYIHWVRQAPGQGLEWMGWINPNTGRTNYAQKFQGRVTMTRDTSISTAYMELSRLRSDDTAVYYCARGGWIGLYYDSSGYPNFDYWGQGTLVTVSS VL: QSALTQPASVSGSPGQSITISCTGTSYDVGSYNLVSWYQQHPGKAPKLMIYEVSKRPSGVSNRFSGSKSGNTASLTISGLQAEDEADYYCCSYAGSSTVIFGGGTKLTVL",binding result,no binding (tested: 5 ug/mL)
